Assay results as given in publication PMC12442443, “Identifying interactions between TDP‐43's N‐terminal and RNA‐binding domains” (Protein Science : A Publication of the Protein Society, 2024).

Target: the molecule itself
Assay: native gel or EMSA; 4-16% Bis-Tris native gel, Coomassie; 8.125 uM RRM alone or with NTD(1-77) at 0.5:1, 1:1 and 2:1 (NTD:RRM); incubated 10 min at 25 C in 300 mM NaCl, 40 mM HEPES pH 6.5, 4 mM DTT; full shift only at 2:1; also repeated with added RNA

B1: TDP-43(102-260), tandem RNA recognition motifs RRM1 and RRM2 of TAR DNA-binding Protein 43 kilodaltons (domain or fragment, human)
chain: KTSDLIVLGLPWKTTEQDLKEYFSTFGEVLMVQVKKDLKTGHSKGFGFVRFTEYETQVKVMSQRHMIDGRWCDCKLPNSKQSQDEPLRSRKVFVGRCTEDMTEDELREFFSQYGDVMDVFIPKPFRAFAFVTFADDQIAQSLCGEDLIIKGISVHISNA
notes: 15N-labelled (M9 medium with 15NH4Cl) in the CPMG NMR; also called RRMs; RRM12; source: E. coli BL21(DE3), purified (His-Trap, Superdex size exclusion)
B1 was tested, and the “stoichiometry N” value was 2.
